Source: patent CN118184778A

Target: 重组AD7c-NTP蛋白 (human)
Experiment: indirect ELISA; plate coated with 1 μg/mL recombinant AD7c-NTP, antibody serially diluted, HRP goat anti-mouse IgG, OD450

Sequence of 重组AD7c-NTP蛋白 (human) (chain, as listed by the source): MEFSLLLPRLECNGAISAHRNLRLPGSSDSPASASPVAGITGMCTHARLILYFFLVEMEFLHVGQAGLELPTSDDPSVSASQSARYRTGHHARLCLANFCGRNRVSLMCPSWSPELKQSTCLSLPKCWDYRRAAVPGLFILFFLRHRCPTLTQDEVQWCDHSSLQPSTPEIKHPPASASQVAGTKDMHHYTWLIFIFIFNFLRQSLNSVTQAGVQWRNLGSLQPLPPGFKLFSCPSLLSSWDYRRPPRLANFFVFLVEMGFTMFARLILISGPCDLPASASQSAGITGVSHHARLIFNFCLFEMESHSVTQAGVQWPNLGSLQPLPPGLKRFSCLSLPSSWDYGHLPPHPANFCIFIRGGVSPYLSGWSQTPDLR

最小反应极限: 9.77 ng/mL
B1: 单克隆抗体1D9 (AD7c-NTP单克隆抗体A1) (antibody, V domains shown)
VH: DVQLQESGPGLVKPSQSLSLTCTVTDYSITSDYAWNWIRQFPGNKLEWMGYISYSGSTNYNPSLKSRFSITRDTSKNQFFLQLNSVTTEDTATYYCAGSELYYGYHYVMDYWGQGTSVTVSS
VL: ENVLTQSPAIMSASLGQKVTMTCSASSSVSSSYLHWYQQRSGASPKPLIHRTSNLASGVPARFSGSGSGTSYSLTISSVEAEDDATYYCQQWSGYPLTFGAGTKLELK
